Measurements as given in patent US20240059766A1.

Tests used:
[1] = biological target: Tau225-240 phospho-peptide (pT231) (human); assay: BLI
[2] = biological target: Tau217-234 phospho-peptide (pT217/pT220/pT231) (human); assay: BLI
wtTau C2 (human) = assay: one point ELISA
[3] = biological target: Tau204-222 phospho-peptide (pT212) (human); assay: one point ELISA
[4] = biological target: Tau204-222 phospho-peptide (pT212/pS214/pT217) (human); assay: one point ELISA
[5] = biological target: Peptide 5 (tPeptide 5) (pT212/pS214/pT217) (human); assay: one point ELISA
[6] = biological target: Tau204-222 phospho-peptide (pS214/pT217) (human); assay: one point ELISA
[7] = biological target: Tau204-222 phospho-peptide (pT212/pT217) (human); assay: one point ELISA
[8] = biological target: Tau204-222 phospho-peptide (pS214) (human); assay: one point ELISA
[9] = biological target: Tau204-222 phospho-peptide (pT212/pS214) (human); assay: one point ELISA
[10] = biological target: Tau204-222 phospho-peptide (pT217) (human); assay: one point ELISA
[11] = biological target: AT8 peptide (amino acids 195-215 of tau) (human); assay: BLI (Octet), peptide on streptavidin tip
Sequence of AT8 peptide (amino acids 195-215 of tau) (human) (peptide, as listed by the source): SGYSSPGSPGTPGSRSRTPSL

[12] = biological target: Tau191-214 phospho-peptide (pS202) (human); assay: one point ELISA
Sequence of Tau191-214 phospho-peptide (pS202) (human) (peptide, as listed by the source): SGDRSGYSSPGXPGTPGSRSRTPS

[13] = biological target: Tau191-214 phospho-peptide (pS199/pS202) (human); assay: one point ELISA
[14] = biological target: Tau191-214 phospho-peptide (pS202/pT205) (human); assay: one point ELISA
[15] = biological target: Tau191-214 phospho-peptide (pS199) (human); assay: one point ELISA
Sequence of Tau191-214 phospho-peptide (pS199) (human) (peptide, as listed by the source): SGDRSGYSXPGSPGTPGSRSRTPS

[16] = biological target: Tau191-214 phospho-peptide (pS199/pT205) (human); assay: one point ELISA
[17] = biological target: SCBio-4PEG-Peptide (Tau191-214) pS199-old (human); assay: one point ELISA
Sequence of SCBio-4PEG-Peptide (Tau191-214) pS199-old (human) (peptide, as listed by the source): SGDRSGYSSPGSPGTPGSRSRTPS

[18] = biological target: Tau191-214 phospho-peptide (pT205) (human); assay: one point ELISA
Sequence of Tau191-214 phospho-peptide (pT205) (human) (peptide, as listed by the source): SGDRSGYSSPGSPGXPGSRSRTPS

[19] = biological target: Tau191-214 phospho-peptide (pS199/pS202/pT205) (human); assay: one point ELISA

Substance | Kd [1] [pM] | Kd [2] [pM] | OD450 (wtTau C2 (human)) [OD450 nm] | OD450 [3] [OD450 nm] | OD450 [4] [OD450 nm] | OD450 [5] [OD450 nm] | OD450 [6] [OD450 nm] | OD450 [7] [OD450 nm] | OD450 [8] [OD450 nm] | OD450 [9] [OD450 nm] | OD450 [10] [OD450 nm] | Kd [11] [pM] | OD450 [12] [OD450 nm] | OD450 [13] [OD450 nm] | OD450 [14] [OD450 nm] | OD450 [15] [OD450 nm] | OD450 [16] [OD450 nm] | OD450 [17] [OD450 nm] | OD450 [18] [OD450 nm] | OD450 [19] [OD450 nm]
AT180 (antibody) | 6 | 5 | – | – | – | – | – | – | – | – | – | – | – | – | – | – | – | – | – | –
PT3-hIgG1 (antibody) | – | – | 1.2 | 3.16 | 3.17 | 2.81 | 3.13 | 3.16 | 3.14 | 3.14 | 3.13 | – | – | – | – | – | – | – | – | –
anti-tau antibody AT8 (ThermoFisher, Waltham, MA) | – | – | – | – | – | – | – | – | – | – | – | 309 | 0.058 | 2.39 | 2.94 | 0.056 | 0.139 | 0.056 | 0.065 | 3.07
anti-tau antibody AT100 (ThermoFisher, Waltham, MA) | – | – | – | 0.069 | 0.187 | – | 0.067 | 0.069 | 0.065 | 0.071 | 0.068 | – | – | – | – | – | – | – | – | –
hIgG1 isotype control (antibody) | – | – | 0.124 | 0.06 | 0.053 | 0.141 | 0.059 | 0.057 | 0.061 | 0.059 | 0.083 | – | 0.055 | 0.062 | 0.249 | 0.058 | 0.09 | 0.06 | 0.054 | 0.245
